From patent US11919930B2, “Odorant receptor co-receptor” (Sumitomo Chemical Company, Limited, priority 2016, dated 2024)
Positions count from the first letter of the chain named. Entries after “also recorded” stand apart in the source; their conditions may differ.

Test system: odorant receptor AaOR8
Assay: Aequorin luminescence measurement in HEK293FT cells co-expressing AaOR8 and a co-receptor, 1-octen-3-ol added
Format: cell-based
Details: 1-octen-3-ol 10^-4 to 10^-10 M; for intensity of response (relative amount of luminescence) to 1-octen-3-ol: compared to cells that expressed original AaORCO or DmORCO
Experimental: HEK293FT cells (purchased from invitrogen, Inc.) were inoculated into 10-cm Petri dishes at a concentration of 3×10^6 cells/Petri dish, and the cells were cultured in DMEM medium containing 10% FBS (manufactured by Nacalai Tesque, Inc.) for about 24 hours under the conditions of 37° C. and 5% CO2. 3 μg of any one of the co-receptor expression plasmids produced, 1.5 μg of any one of the odorant receptor expression plasmids produced, and 8 μg of Aequorin expression plasmid were mixed with 12.5 μL of Plus reagent and 31.25 μL of LIPOFECTAMINE LTX (manufactured by Invitrogen, Inc.), and the mixture was maintained for 30 minutes. Subsequently this liquid mixture was transfected into the above-mentioned cells. After 4 hours from the initiation of transfection, the cells were inoculated onto a 96-well plate at a concentration of 9×10^4 cells/well, and the cells were cultured in DMEM medium containing 10% FBS (manufactured by Nacalai Tesque, Inc.) for about 24 hours under the conditions of 37° C. and 5% CO2. Thereby, transformed cells having a co-receptor expression plasmid, an odorant receptor expression plasmid, and an aequorin expression plasmid transiently incorporated therein were obtained.
Aequorin is activated when hound to a calcium ion, and oxidizes a substrate such as coelenterazine, thus emitting light. […] Therefore, whether an odorant receptor complex functions an ion channel as a result of addition of a substance to be detected, can be measured from the change in the amount of luminescence.
A culture fluid of the transformed cells was removed, and the medium was exchanged with Hanks-HEPES (20 mM, pH 7.4) including Assay buffer (0.5 μM coelenterazine h (manufactured by Promega Corporation) and 0.3% BSA. culture system was left to stand for another 4 hours at room temperature. Subsequently, a substance to be detected, which corresponded to an odorant receptor, was added to the cell culture using FLEXSTATION 3 (manufactured by Molecular Devices, LLC), and at the same time, the amount of luminescence of the cells was measured. As a control substance, the amount of luminescence in the cells to which dimethyl sulfoxide had been added was designated as 1, and the amount or luminescence of cells to which the substance to be detected was added was calculated as a relative value.
(§1) Cells into which: • an expression plasmid of odorant receptor AaOR8; • an expression plasmid of any one of co-receptor AaORCO or DmORCO, or various chimeric co-receptors Dm-AaORCO having different positions of recombination [Dm(NT-EC1)AaORCO, Dm(NT-TM3)AaOROC, Dm(NT-TM4)AaORCO, Dm(NT-TM5)AaORCO, or Dm(NT-TM6)AaORCO]; and • an aequorin expression plasmid had been incorporated were used, and the amount of luminescence was measured as explained above. 1-Octen-3-ol was used as a substance to be detected, and 1-octen-3-ol was added to the culture fluid at a concentration of 10^−4 M, 10^−5 M, 10^−6 M, 10^−7 M, 10^−8 M, 10^−9 M, or 10^−10 M. The results are presented in FIG. 1.
as §1, with “AmORCO” for “AaORCO”, “Dm-AmORCO” for “Dm-AaORCO”, “[Dm(NT-TM3)AmOROC, Dm(NT-TM4)AmORCO, Dm(NT-TM5)AmORCO,” for “[Dm(NT-EC1)AaORCO, Dm(NT-TM3)AaOROC, Dm(NT-TM4)AaORCO, Dm(NT-TM5)AaORCO,”, “Dm(NT-TM6)AmORCO];” for “Dm(NT-TM6)AaORCO];”, “2. […]” for “1.”

[1] = compared to cells that expressed original AaORCO or AmORCO

B1: Ag(NT-TM4)AmORCO: chimeric co-receptor: NT to TM4 from Anopheles co-receptor, IC2 to C-terminal domain from Apis co-receptor; SEQ ID NO:114 (protein)
chain: MQVQPTKYVGLVADLMPNIRLMQASGHFLFRYVTGPILIRKVYSWWTLAMVLIQFFAILGNLATNADDVNELTANTITTLFFTHSVTKFIYFAVNSENFYRTLAIWNQTNTHPLFAESDARYHSIALAKMRKLLVLVMATTVLSVVAWVTITFFGESVKTVLDKATNETYTVDIPRLPIKSWYPWNAMSGPAYIFSFIYQIYFLLFSMVQSNLADVMFCSWLLLACEQLQHLKNIMKPLMEFSATLDTVVPNSGELFKAGSAEQPKEQEPLPPVTPPQGENMLDMDLRGIYSNRTDFTTTFRPTAGMTFNGGVGPNGLTKKQEMLVRSAIKYWVERHKHIVRLVTAIGDAYGVALLLHMLTTTITLTLLAYQATKIHAVDTYAASVVGYLLYSLGQVFMLCIFGNRLIEESSSVMEAAYSCHWYDGSEEAKTFVQIVCQQCQKAMSISGAKFFTVSLDLFASVLGAMVTYFMVLVQLK
- concentration of 1-octan-3-ol at which cells responded [1]: responded to 1-octan-3-ol at a lower concentration

B2: Aa(TM1-4Dm)AaORCO: chimeric co-receptor: first to fourth transmembrane domains from Drosophila co-receptor, other domains from Aedes co-receptor; SEQ ID NO:82 (protein)
chain: MNVQPTKYHGLVLDLMPNIRLMQGFGHFLFRYVNGPVLIKKVYSSVHLVFLLMQFTFILVNMAMNTGDVNELTANTITTLFFTHCITKFIYLAVNSEHFYRTLGIWNQPNSHSLFAESDARYHSIALAKMRKLFFLVMLTTVASATAWTTITFFGDSVKNVFDKETNETYTVEIPRLPIKAWYPWDAMHGMFYMISFAFQIYYVLFSMIHSNLCDVMFCSWLIFACEQLQHLKGIMRPLMELSATLDTYRPNSAALFRVASAGSKSELILNEEKDPDTKDFDLNGIYNSKADWGAQFRAPSTLQTFGDNGINGNPNGLTKKQELMVRSAIKYWVERHKHVVRLVSAIGETYGAALLLHMLTSTIKLTLLAYQATKIDALNVYGLTVIGYLVYALAQVFLFCIFGNRLIEESSSVMEAAYSCHWYDGSEEAKTFVQIVCQQCQKAMTISGAKFFTVSLDLFASVLGAVVTYFMVLVQLK
- intensity of response (relative amount of luminescence) to 1-octen-3-ol: the intensity of response to 1-octen-3-ol was decreased

B3: Dm(TM1-4Aa)AaORCO: chimeric co-receptor: amino-terminal domain, EC1, IC1, EC2 from Drosophila co-receptor, other domains from Aedes co-receptor; SEQ ID NO:86 (protein)
chain: MTTSMQPSKYTGLVADLMPNIRAMKYSGLFMHNFTGGSAFMRKLYSWWNLIMILLQYFAIMGNLVLNAEEVNELSGNTITTLFFTHSVTKFIYVAVNQKNFYRTLNIWNQVNTHPLFAESDARYHSIALAKMRKLLVMVMVTTVLSVVAWITITFFGDSVKMVVDHETNSSIPVEIPRLPIKSFYPWNASSGVPYFFSFIYQAYFLLFSMCQANLADVMFCSWLLFTCEQLQHLKGIMRPLMELSATLDTYRPNSAALFRVASAGSKSELILNEEKDPDTKDFDLNGIYNSKADWGAQFRAPSTLQTFGDNGINGNPNGLTKKQELMVRSAIKYWVERHKHVVRLVSAIGETYGAALLLHMLTSTIKLTLLAYQATKIDALNVYGLTVIGYLVYALAQVFLFCIFGNRLIEESSSVMEAAYSCHWYDGSEEAKTFVQIVCQQCQKAMTISGAKFFTVSLDLFASVLGAVVTYFMVLVQLK
- intensity of response (relative amount of luminescence) to 1-octen-3-ol: the intensity of response to 1-octen-3-ol was decreased

B4: Dm(NT-TM4)AaORCO: chimeric co-receptor: NT to TM4 (residues 1-234) from Drosophila co-receptor, IC2 to C-terminal domain from Aedes co-receptor; SEQ ID NO:71 (protein)
chain: MTTSMQPSKYTGLVADLMPNIRAMKYSGLFMHNFTGGSAFMKKVYSSVHLVFLLMQFTFILVNMALNAEEVNELSGNTITTLFFTHCITKFIYLAVNQKNFYRTLNIWNQVNTHPLFAESDARYHSIALAKMRKLFFLVMLTTVASATAWTTITFFGDSVKMVVDHETNSSIPVEIPRLPIKSFYPWNASHGMFYMISFAFQIYYVLFSMIHSNLCDVMFCSWLIFACEQLQHLKGIMRPLMELSATLDTYRPNSAALFRVASAGSKSELILNEEKDPDTKDFDLNGIYNSKADWGAQFRAPSTLQTFGDNGINGNPNGLTKKQELMVRSAIKYWVERHKHVVRLVSAIGETYGAALLLHMLTSTIKLTLLAYQATKIDALNVYGLTVIGYLVYALAQVFLFCIFGNRLIEESSSVMEAAYSCHWYDGSEEAKTFVQIVCQQCQKAMTISGAKFFTVSLDLFASVLGAVVTYFMVLVQLK
- intensity of response (relative amount of luminescence) to 1-octen-3-ol: responded more strongly to 1-octen-3-ol; also recorded: the intensity of response to 1-octen-3-ol was higher

B5: Dm(792)AaORCO: chimeric co-receptor: N-terminus to residue 264 from Drosophila co-receptor, residue 265 to C-terminus from Aedes co-receptor; SEQ ID NO:74 (protein)
chain: B4 chain with R239K, T247S, V261S, A262L
- intensity of response to 1-octen-3-ol (compared to cells that expressed original AaORCO): the intensity of response to 1-octen-3-ol was decreased

B6: Dm(NT-636)AaORCO: chimeric co-receptor: N-terminus to residue 212 from Drosophila co-receptor, residue 213 to C-terminus from Aedes co-receptor; SEQ ID NO:78 (protein)
chain: B4 chain with S213A, C216A, I225L, A227T
- intensity of response (relative amount of luminescence) to 1-octen-3-ol: the intensity of response to 1-octen-3-ol was decreased

B7: Aa(NT-TM4)AmORCO: chimeric co-receptor: NT to TM4 from Aedes co-receptor, IC2 to C-terminal domain from Apis co-receptor; SEQ ID NO:108 (protein)
chain: MNVQPTKYHGLVLDLMPNIRLMQGFGHFLFRYVNGPVLIRKLYSWWNLIMILLQYFAIMGNLVMNTGDVNELTANTITTLFFTHSVTKFIYVAVNSEHFYRTLGIWNQPNSHSLFAESDARYHSIALAKMRKLLVMVMVTTVLSVVAWITITFFGDSVKNVFDKETNETYTVEIPRLPIKAWYPWDAMSGVPYFFSFIYQAYFLLFSMCQANLADVMFCSWLLFTCEQLQHLKNIMKPLMEFSATLDTVVPNSGELFKAGSAEQPKEQEPLPPVTPPQGENMLDMDLRGIYSNRTDFTTTFRPTAGMTFNGGVGPNGLTKKQEMLVRSAIKYWVERHKHIVRLVTAIGDAYGVALLLHMLTTTITLTLLAYQATKIHAVDTYAASVVGYLLYSLGQVFMLCIFGNRLIEESSSVMEAAYSCHWYDGSEEAKTFVQIVCQQCQKAMSISGAKFFTVSLDLFASVLGAMVTYFMVLVQLK
- response (relative amount of luminescence) to 1-octan-3-ol [1]: responded more strongly to 1-octan-3-ol
